For experiment [1], the target named is T1, fragment of 53BP1 (a.a. 1221-1718) (Homo sapiens, UniProt Q12888).
T1 construct: a fragment of 53BP1 (a.a. 1221-1718); expressed in transfected cells; host or cells: E. coli DHM1
The experiment in a line: BACTH two-hybrid pooled screen in E. coli, FACS sorting of GFP positive cells and NGS enrichment of i53 amino acid changes. The experiment is classed as cell-based. Particulars: i53 (SEQ ID NO: 2) background; for Rep 1 Enrichment / Rep 2 Enrichment: log2 enrichment of amino acid change in GFP positive vs input, normalised to synonymous changes; for Average Enrichment / Experiment 1 - high selection pressure Average Enrichment / Experiment 2-low selection pressure Average Enrichment: average of Rep 1 and Rep 2; for Average Enrichment: log2 enrichment; for Experiment 1 - high selection pressure Average Enrichment / Experiment 2-low selection pressure Average Enrichment: log 2 enrichment; for Experiment 1 - high selection pressure Rep 1 Enrichment / Experiment 2-low selection pressure Rep 1 Enrichment: replicate 1; for Experiment 1 - high selection pressure Rep 1 Enrichment / Experiment 1 - high selection pressure Rep 2 Enrichment / Experiment 2-low selection pressure Rep 1 Enrichment / Experiment 2-low selection pressure Rep 2 Enrichment: enrichment = log 2 of positive/input read count ratio normalised to synonymous changes; for Experiment 1 - high selection pressure Rep 2 Enrichment / Experiment 2-low selection pressure Rep 2 Enrichment: replicate 2. From the text: (§1) In order to identify mutations that improve the affinity of i53 for 53BP1, the bacterial adenylate cyclase two-hybrid system (BACTH system) was used to screen for interaction between the two proteins. This method makes use of a B. pertussis calmodulin-dependent adenylate cyclase toxin. The catalytic domain of the toxin can be separated into two fragments (T18 and T25) that are able to associate in the presence of calmodulin but have minimal activity in its absence. If bait and prey proteins fused to T18 and T25 interact, then the catalytic activity is restored and cAMP is produced. In E. coli, cAMP binds to catabolite activator protein (CAP) that acts as a transcriptional activator for several genes. By expressing these fusion proteins in an E. coli strain that lacks endogenous adenylate cyclase and naturally lacks calmodulin, cAMP regulated protein expression can be used as a readout of bait-prey interaction. We engineered the screen so that eGFP will be expressed under the control of a cAMP-regulated promoter. The coding sequence for a fragment of 53BP1 (a.a. 1221-1718) containing the i53 interacting regions and i53 were cloned into T18 and T25 adenylate cyclase expression plasmids such that fusion proteins of each would be expressed. If a Ubv interacts with 53BP1, the T18 and T25 fragments will be brought together, adenylate cyclase activity will be restored, cAMP will be produced, and some portion of the bacterial population will be GFP positive.
A plasmid library was made consisting of Ubv-adenylate cyclase fragment fusion protein plasmids that had on average a single codon within the i53 coding region exchanged for a random NNK codon. Plasmids were transformed into DHM1 cells that lack endogenous adenylate cyclase and contain the plasmid for expression of the 53BP1 fragment fused to one of the adenylate cyclase fragments. Expression of eGFP was used as a readout of bait-prey interaction using fluorescence activated cell sorting (FACS) to sort for GFP positive bacteria. Plasmid DNA was isolated from both the sorted GFP positive bacteria (Positive) and from the original pre-sort population (Input) and was sequenced using NGS. Counts were merged for mutations that result in the same amino acid change using Enrich2 [25]. Enrichment was calculated as enrichment=log 2((read count for an amino acid change in the positive population/read count for an amino acid change in the input)/(synonymous change read count in the positive population/synonymous change read count in the input)). […] For each experiment, DHM1 cells were transformed with the Ubv fusion protein plasmid library in two separate replicates using a gene pulser (Bio-Rad). The i53-adenylate cyclase fragment fusion protein (published i53 peptide, SEQ ID NO:2) plasmid was also introduced separately as a control to estimate selection pressure. Cells were then grown and sorted using FACS and GFP positive cells were collected. Two separate experiments were conducted on separate days using different levels of selection pressure resulting in a different percent GFP positive for the i53 population (i.e. for cells that express published i53 peptide (SEQ ID NO:2) fused to one of the adenylate cyclase fragments).
(§2) There was a high degree of correlation between the two experiments and between replicates (FIG. 2). From these screens, about 230 amino acid changes were identified for which the average enrichment was positive for at least one of the experiments (Table 1). […] To validate that the amino acid changes identified from the pooled screen are reproducible on an individual basis, 24 amino acid changes identified from this screen were introduced individually into the i53 fusion protein plasmid and tested by flow cytometry for their effect on the percent positive population relative to i53 (FIG. 3). There was a strong correlation between the enrichment measured from the pooled screen and the percent reporter positive cells when mutations were screened individually.

The target of experiment [2] is T1, fragment of 53BP1 (a.a. 1221-1718). The experiment in a line: Individual two-hybrid screen of amino acid changes, percent GFP (reporter) positive cells by flow cytometry. The class given is cell-based. More on the design: key to Dunnett's Multiple Comparison Summary: NS means not significant; *, **, ***, **** reflects qualitative measure of the strength of association the Ubv has with 53BP1 compared to the similar association of i53 with 53BP1.; *, **, ***, **** reflects qualitative measure of the strength of association the Ubv has with 53BP1 compared to the similar association of i53 with 53BP1.; *, **, ***, **** reflects qualitative measure of the strength of association the Ubv has with 53BP1 compared to the similar association of i53 with 53BP1.; *, **, ***, **** reflects qualitative measure of the strength of association the Ubv has with 53BP1 compared to the similar association of i53 with 53BP1. The settings on record: for Dunnett's Multiple Comparison Summary: comparison i53 vs. i53 + amino acid change; for Percent GFP Positive Rep 1: replicate 1, amino acid change in i53 fusion protein plasmid; for Percent GFP Positive Rep 2: replicate 2; for Percent GFP Positive Rep 3: replicate 3.
Text: as §1, §2
Background: Flow cytometry measures light scatter and fluorescence of single cells or particles in a stream.

Setting [3] is: Experiment 1 - high selection pressure.
The mark [4] stands for this setting: Experiment 2 - low selection pressure.

T1 sequence (Q12888 1221-1718): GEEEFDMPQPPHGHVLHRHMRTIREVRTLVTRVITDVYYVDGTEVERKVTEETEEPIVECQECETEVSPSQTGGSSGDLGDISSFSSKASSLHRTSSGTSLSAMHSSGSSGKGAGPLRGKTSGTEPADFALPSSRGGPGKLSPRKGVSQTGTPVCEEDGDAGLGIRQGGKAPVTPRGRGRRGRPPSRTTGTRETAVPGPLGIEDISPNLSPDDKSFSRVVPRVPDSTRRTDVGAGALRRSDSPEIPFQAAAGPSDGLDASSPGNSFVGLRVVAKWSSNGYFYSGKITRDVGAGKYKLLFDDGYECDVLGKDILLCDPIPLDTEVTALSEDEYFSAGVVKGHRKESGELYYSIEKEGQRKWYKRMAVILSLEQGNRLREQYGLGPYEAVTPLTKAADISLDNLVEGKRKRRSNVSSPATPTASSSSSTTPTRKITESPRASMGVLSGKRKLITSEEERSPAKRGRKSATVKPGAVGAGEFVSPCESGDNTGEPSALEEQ

As for A44T: i53 with amino acid change A44T, in experiment [1] (setting [3]), the “Rep 1 Enrichment” value came to 1.70, the “Rep 2 Enrichment” value turned out to be 0.87 and the “Average Enrichment” value is 1.28. Further, in experiment [1] (setting [4]), the “Rep 1 Enrichment” value was 0.75, the “Rep 2 Enrichment” value is 0.59 and the “Average Enrichment” value came out at 0.67. Also, in experiment [2], the “Dunnett's Multiple Comparison Summary” value is given as “ns”, the “Percent GFP Positive Rep 1” value was 17.5%, the “Percent GFP Positive Rep 2” value amounted to 7.7% and the “Percent GFP Positive Rep 3” value came out at 12.8%.
In the case of H68M: i53 with amino acid change H68M, in experiment [1], the “Experiment 1 - high selection pressure Average Enrichment” value came to 2.28, the “Experiment 1 - high selection pressure Rep 1 Enrichment” value is 2.53, the “Experiment 1 - high selection pressure Rep 2 Enrichment” value is 2.04 and the “Experiment 2-low selection pressure Average Enrichment” value was found to be 1.28. Besides, in experiment [1], the “Experiment 2-low selection pressure Rep 1 Enrichment” value is 0.99 and the “Experiment 2-low selection pressure Rep 2 Enrichment” value is 1.58. Further, in experiment [2], the “Dunnett's Multiple Comparison Summary” value is “***”, the “Percent GFP Positive Rep 1” value was determined as 28.6%, the “Percent GFP Positive Rep 2” value is 23.5% and the “Percent GFP Positive Rep 3” value is listed as 28.3%.
In the case of I61L: i53 with amino acid change I61L, in experiment [1] (setting [3]), the “Rep 1 Enrichment” value is 1.10, the “Rep 2 Enrichment” value was 1.02 and the “Average Enrichment” value was determined as 1.06. Also, in experiment [1] (setting [4]), the “Rep 1 Enrichment” value is 0.75, the “Rep 2 Enrichment” value was found to be 0.59 and the “Average Enrichment” value stood at 0.67. Moreover, in experiment [2], the “Dunnett's Multiple Comparison Summary” value is on record as “ns”, the “Percent GFP Positive Rep 1” value is on record as 15.9%, the “Percent GFP Positive Rep 2” value turned out to be 17.6% and the “Percent GFP Positive Rep 3” value came out at 17.2%.
K29M: i53 with amino acid change K29M: in experiment [1] (setting [3]), the “Rep 1 Enrichment” value is on record as 1.72, the “Rep 2 Enrichment” value was 1.48 and the “Average Enrichment” value worked out at 1.60. In experiment [1] (setting [4]), the “Rep 1 Enrichment” value turned out to be 1.23, the “Rep 2 Enrichment” value is reported as 0.57 and the “Average Enrichment” value was determined as 0.90. For the same substance, in experiment [2], the “Dunnett's Multiple Comparison Summary” value was “ns”, the “Percent GFP Positive Rep 1” value is on record as 23.9%, the “Percent GFP Positive Rep 2” value was found to be 16.5% and the “Percent GFP Positive Rep 3” value was 17.8%.
On to K48T: i53 with amino acid change K48T, for which, in experiment [1] (setting [3]), the “Rep 1 Enrichment” value was 1.20, the “Rep 2 Enrichment” value is reported as 1.08 and the “Average Enrichment” value was found to be 1.14. For the same substance, in experiment [1] (setting [4]), the “Rep 1 Enrichment” value turned out to be 0.84, the “Rep 2 Enrichment” value came out at 0.66 and the “Average Enrichment” value is 0.75. Besides, in experiment [2], the “Dunnett's Multiple Comparison Summary” value was “ns”, the “Percent GFP Positive Rep 1” value turned out to be 16.9%, the “Percent GFP Positive Rep 2” value was 14% and the “Percent GFP Positive Rep 3” value was 14.5%.
With L67K: i53 with amino acid change L67K, in experiment [1] (setting [3]), the “Rep 1 Enrichment” value is recorded as 2.08, the “Rep 2 Enrichment” value is recorded as 1.93 and the “Average Enrichment” value is recorded as 2.01. In experiment [1] (setting [4]), the “Rep 1 Enrichment” value amounted to 1.40, the “Rep 2 Enrichment” value is 0.39 and the “Average Enrichment” value stood at 0.89. Also, in experiment [2], the “Dunnett's Multiple Comparison Summary” value is “ns”, the “Percent GFP Positive Rep 1” value is on record as 24.2%, the “Percent GFP Positive Rep 2” value came to 11.2% and the “Percent GFP Positive Rep 3” value stood at 21.5%.
For the substance L73M: i53 with amino acid change L73M, in experiment [1], the “Experiment 1 - high selection pressure Average Enrichment” value stood at 2.61, the “Experiment 1 - high selection pressure Rep 1 Enrichment” value came out at 2.69, the “Experiment 1 - high selection pressure Rep 2 Enrichment” value was found to be 2.52 and the “Experiment 2-low selection pressure Average Enrichment” value was 1.43. Moreover, in experiment [1], the “Experiment 2-low selection pressure Rep 1 Enrichment” value came out at 1.58 and the “Experiment 2-low selection pressure Rep 2 Enrichment” value was 1.28. In experiment [2], the “Dunnett's Multiple Comparison Summary” value was “****”, the “Percent GFP Positive Rep 1” value amounted to 36.2%, the “Percent GFP Positive Rep 2” value is recorded as 29.2% and the “Percent GFP Positive Rep 3” value amounted to 39.5%.
Regarding S49L: i53 with amino acid change S49L, in experiment [1] (setting [3]), the “Rep 1 Enrichment” value is on record as 0.85, the “Rep 2 Enrichment” value was determined as 1.15 and the “Average Enrichment” value is given as 1.00. In experiment [1] (setting [4]), the “Rep 1 Enrichment” value was 0.97, the “Rep 2 Enrichment” value was 0.80 and the “Average Enrichment” value came to 0.88. Further, in experiment [2], the “Dunnett's Multiple Comparison Summary” value was “ns”, the “Percent GFP Positive Rep 1” value is listed as 18.8%, the “Percent GFP Positive Rep 2” value is listed as 13.6% and the “Percent GFP Positive Rep 3” value is reported as 17.7%.
In the case of V26I: i53 with amino acid change V26I, in experiment [1] (setting [3]), the “Rep 1 Enrichment” value is 0.99, the “Rep 2 Enrichment” value is 1.25 and the “Average Enrichment” value came to 1.12. Moreover, in experiment [1] (setting [4]), the “Rep 1 Enrichment” value is 0.96, the “Rep 2 Enrichment” value is recorded as 0.70 and the “Average Enrichment” value is 0.83. In experiment [2], the “Dunnett's Multiple Comparison Summary” value is “ns”, the “Percent GFP Positive Rep 1” value is recorded as 20.9%, the “Percent GFP Positive Rep 2” value was determined as 14.2% and the “Percent GFP Positive Rep 3” value amounted to 12.3%.
In the case of i53 K6R: i53 with K6R, in experiment [1] (setting [3]), the “Rep 1 Enrichment” value is reported as 1.84, the “Rep 2 Enrichment” value worked out at 1.91 and the “Average Enrichment” value amounted to 1.87. In experiment [1] (setting [4]), the “Rep 1 Enrichment” value was 1.22, the “Rep 2 Enrichment” value is 0.80 and the “Average Enrichment” value stood at 1.01. In experiment [2], the “Dunnett's Multiple Comparison Summary” value is on record as “**”, the “Percent GFP Positive Rep 1” value turned out to be 19.8%, the “Percent GFP Positive Rep 2” value amounted to 27% and the “Percent GFP Positive Rep 3” value came to 24%.
